Laboratory results from the supplement of paper PMC9112550, “Optimization of the antimicrobial peptide Bac7 by deep mutational scanning” (BMC Biology, 2022).

System: Escherichia coli TOP10
Assay: shrunken log2 fold change of peptide-encoding DNA abundance (4.5 h post-induction vs induction); higher = less antimicrobial activity (less host growth inhibition)
Conditions: time post-induction: 4.5 h; library: site-saturation at positions 5, 18, 19, 20
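Also: peptides expressed intracellularly from a pBAD plasmid library in pooled LB shake-flask culture, induced with 0.3% L-arabinose, DNA abundance read by NGS, three biological replicates, DESeq2 with apeglm shrinkage.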

RRIRWRPPRLPRPRPRPECYPRP
shrunken log2 fold change: -0.0149

RRIRMRPPRLPRPRPRPWFVPRP
shrunken log2 fold change: -0.283

RRIRQRPPRLPRPRPRPSNKPRP
shrunken log2 fold change: -0.513

RRIRWRPPRLPRPRPRPWVCPRP
shrunken log2 fold change: 0.186

RRIRARPPRLPRPRPRPFPFPRP
shrunken log2 fold change: -0.112

RRIRRRPPRLPRPRPRPRPVPRP
shrunken log2 fold change: 0.882

RRIRPRPPRLPRPRPRPPCLPRP
shrunken log2 fold change: -0.153

RRIRCRPPRLPRPRPRPNYTPRP
shrunken log2 fold change: -0.879

RRIRARPPRLPRPRPRPDICPRP
shrunken log2 fold change: 0.307

RRIRFRPPRLPRPRPRPIEMPRP
shrunken log2 fold change: -0.245

RRIRSRPPRLPRPRPRPLWAPRP
shrunken log2 fold change: 0.206

RRIRPRPPRLPRPRPRPWLCPRP
shrunken log2 fold change: 0.106

RRIRDRPPRLPRPRPRPNEIPRP
shrunken log2 fold change: -0.0208

RRIRHRPPRLPRPRPRPRFKPRP
shrunken log2 fold change: -0.153

RRIRYRPPRLPRPRPRPNMPPRP
shrunken log2 fold change: -0.304

RRIRSRPPRLPRPRPRPLTMPRP
shrunken log2 fold change: -0.242

RRIRYRPPRLPRPRPRPWMDPRP
shrunken log2 fold change: -0.159

RRIRYRPPRLPRPRPRPEKFPRP
shrunken log2 fold change: -0.0136

RRIRCRPPRLPRPRPRPAQMPRP
shrunken log2 fold change: 0.224

RRIRNRPPRLPRPRPRPKPWPRP
shrunken log2 fold change: 0.217

RRIRYRPPRLPRPRPRPEAYPRP
shrunken log2 fold change: -0.185

RRIRMRPPRLPRPRPRPIYQPRP
shrunken log2 fold change: -0.236

RRIRQRPPRLPRPRPRPCSHPRP
shrunken log2 fold change: 0.0226

RRIRKRPPRLPRPRPRPNMYPRP
shrunken log2 fold change: -0.14

RRIRCRPPRLPRPRPRPPTWPRP
shrunken log2 fold change: 0.0486

RRIRCRPPRLPRPRPRPPRNPRP
shrunken log2 fold change: 1.05

RRIRFRPPRLPRPRPRPNNIPRP
shrunken log2 fold change: -1.04

RRIRFRPPRLPRPRPRPSEPPRP
shrunken log2 fold change: -0.0424

RRIRCRPPRLPRPRPRPCMVPRP
shrunken log2 fold change: -0.587

RRIRTRPPRLPRPRPRPWKAPRP
shrunken log2 fold change: 0.0456

RRIRKRPPRLPRPRPRPCQLPRP
shrunken log2 fold change: -0.0631

RRIRTRPPRLPRPRPRPCCLPRP
shrunken log2 fold change: 0.096

RRIRWRPPRLPRPRPRPWFYPRP
shrunken log2 fold change: -0.705

RRIRHRPPRLPRPRPRPLPCPRP
shrunken log2 fold change: -0.0645

RRIRWRPPRLPRPRPRPMKNPRP
shrunken log2 fold change: 0.226

RRIRDRPPRLPRPRPRPFFVPRP
shrunken log2 fold change: 0.0823

RRIRCRPPRLPRPRPRPLFEPRP
shrunken log2 fold change: 0.193

RRIRSRPPRLPRPRPRPFDRPRP
shrunken log2 fold change: -0.118

RRIRRRPPRLPRPRPRPKNMPRP
shrunken log2 fold change: -0.00338

RRIRCRPPRLPRPRPRPIKRPRP
shrunken log2 fold change: -0.628

RRIRHRPPRLPRPRPRPAYSPRP
shrunken log2 fold change: -0.000852

RRIRTRPPRLPRPRPRPHAMPRP
shrunken log2 fold change: -0.31

RRIRSRPPRLPRPRPRPLIVPRP
shrunken log2 fold change: -0.206

RRIRWRPPRLPRPRPRPPHWPRP
shrunken log2 fold change: 0.592

RRIRHRPPRLPRPRPRPGPDPRP
shrunken log2 fold change: -0.227

RRIRLRPPRLPRPRPRPFNYPRP
shrunken log2 fold change: -0.817

RRIRFRPPRLPRPRPRPHHSPRP
shrunken log2 fold change: -0.883

RRIRMRPPRLPRPRPRPLSRPRP
shrunken log2 fold change: 0.349

RRIRDRPPRLPRPRPRPGASPRP
shrunken log2 fold change: 1.08

RRIRMRPPRLPRPRPRPTDLPRP
shrunken log2 fold change: 0.225

RRIRGRPPRLPRPRPRPGINPRP
shrunken log2 fold change: 0.499

RRIRPRPPRLPRPRPRPYVDPRP
shrunken log2 fold change: -0.117

RRIRPRPPRLPRPRPRPHWSPRP
shrunken log2 fold change: 0.26

RRIRFRPPRLPRPRPRPSSQPRP
shrunken log2 fold change: -0.458

RRIRTRPPRLPRPRPRPKQKPRP
shrunken log2 fold change: -0.203

RRIRARPPRLPRPRPRPGIYPRP
shrunken log2 fold change: -0.225

RRIRDRPPRLPRPRPRPYGGPRP
shrunken log2 fold change: -0.122

RRIRWRPPRLPRPRPRPYRWPRP
shrunken log2 fold change: -0.0731

RRIRVRPPRLPRPRPRPHMKPRP
shrunken log2 fold change: -0.483

RRIRIRPPRLPRPRPRPMWCPRP
shrunken log2 fold change: -0.168
